A word on the stoichiometry N: it is the number of molecules, sites or subunits per partner or assembly.

This note sets out measurements from paper PMC11950179 (Nature Communications, 2025).

The labels stand for the following.
T1: human muscle phosphorylase kinase α subunit (PHKA1), dephosphorylated (human, UniProt P46020 1-1223)
T1 sequence (looked up): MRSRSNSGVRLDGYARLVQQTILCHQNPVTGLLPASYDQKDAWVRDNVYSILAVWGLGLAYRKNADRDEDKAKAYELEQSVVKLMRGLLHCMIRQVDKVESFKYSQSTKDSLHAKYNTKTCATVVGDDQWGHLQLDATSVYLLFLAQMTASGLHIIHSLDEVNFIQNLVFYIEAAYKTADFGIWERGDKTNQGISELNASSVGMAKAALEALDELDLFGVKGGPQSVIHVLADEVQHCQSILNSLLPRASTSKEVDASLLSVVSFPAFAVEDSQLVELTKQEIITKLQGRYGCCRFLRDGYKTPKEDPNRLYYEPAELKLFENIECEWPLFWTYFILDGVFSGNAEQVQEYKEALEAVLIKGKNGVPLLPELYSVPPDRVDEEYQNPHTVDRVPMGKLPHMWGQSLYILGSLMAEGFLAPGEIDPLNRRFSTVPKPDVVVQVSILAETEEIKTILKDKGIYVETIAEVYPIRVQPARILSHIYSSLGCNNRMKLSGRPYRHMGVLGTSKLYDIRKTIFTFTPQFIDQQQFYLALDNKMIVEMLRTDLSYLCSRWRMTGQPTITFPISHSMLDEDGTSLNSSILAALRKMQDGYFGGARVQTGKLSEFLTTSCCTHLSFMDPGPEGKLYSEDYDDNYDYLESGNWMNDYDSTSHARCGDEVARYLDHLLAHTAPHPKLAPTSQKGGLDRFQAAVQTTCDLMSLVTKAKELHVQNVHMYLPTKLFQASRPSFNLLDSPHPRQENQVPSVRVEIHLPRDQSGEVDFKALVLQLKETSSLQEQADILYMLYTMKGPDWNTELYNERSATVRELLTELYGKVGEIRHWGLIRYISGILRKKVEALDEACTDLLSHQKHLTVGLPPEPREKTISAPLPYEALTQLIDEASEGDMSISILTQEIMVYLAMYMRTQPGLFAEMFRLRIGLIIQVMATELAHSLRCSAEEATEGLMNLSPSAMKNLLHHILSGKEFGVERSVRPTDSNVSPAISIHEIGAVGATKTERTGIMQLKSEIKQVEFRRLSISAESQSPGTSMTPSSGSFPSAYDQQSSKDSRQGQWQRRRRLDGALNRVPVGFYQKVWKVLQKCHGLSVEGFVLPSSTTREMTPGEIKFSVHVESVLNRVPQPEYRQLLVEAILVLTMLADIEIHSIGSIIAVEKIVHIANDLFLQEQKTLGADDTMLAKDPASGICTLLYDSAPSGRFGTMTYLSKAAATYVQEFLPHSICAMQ

B1: human muscle phosphorylase kinase γ subunit (PHKG1) (enzyme)
chain: not shown
B2: human muscle glycogen phosphorylase (PYGM) (enzyme, UniProt P11217 1-842, looked up)
chain: MSRPLSDQEKRKQISVRGLAGVENVTELKKNFNRHLHFTLVKDRNVATPRDYYFALAHTVRDHLVGRWIRTQQHYYEKDPKRIYYLSLEFYMGRTLQNTMVNLALENACDEATYQLGLDMEELEEIEEDAGLGNGGLGRLAACFLDSMATLGLAAYGYGIRYEFGIFNQKISGGWQMEEADDWLRYGNPWEKARPEFTLPVHFYGHVEHTSQGAKWVDTQVVLAMPYDTPVPGYRNNVVNTMRLWSAKAPNDFNLKDFNVGGYIQAVLDRNLAENISRVLYPNDNFFEGKELRLKQEYFVVAATLQDIIRRFKSSKFGCRDPVRTNFDAFPDKVAIQLNDTHPSLAIPELMRILVDLERMDWDKAWDVTVRTCAYTNHTVLPEALERWPVHLLETLLPRHLQIIYEINQRFLNRVAAAFPGDVDRLRRMSLVEEGAVKRINMAHLCIAGSHAVNGVARIHSEILKKTIFKDFYELEPHKFQNKTNGITPRRWLVLCNPGLAEVIAERIGEDFISDLDQLRKLLSFVDDEAFIRDVAKVKQENKLKFAAYLEREYKVHINPNSLFDIQVKRIHEYKRQLLNCLHVITLYNRIKREPNKFFVPRTVMIGGKAAPGYHMAKMIIRLVTAIGDVVNHDPAVGDRLRVIFLENYRVSLAEKVIPAADLSEQISTAGTEASGTGNMKFMLNGALTIGTMDGANVEMAEEAGEENFFIFGMRVEDVDKLDQRGYNAQEYYDRIPELRQVIEQLSSGFFSPKQPDLFKDIVNMLMHHDRFKVFADYEDYIKCQEKVSALYKNPREWTRMVIRNIATSGKFSSDRTIAQYAREIWGVEPSRQRLPAPDEAI
B3: human phosphorylase kinase β subunit (PHKB), dephosphorylated (natural protein, UniProt Q93100 1-1093, looked up)
chain: MAGAAGLTAEVSWKVLERRARTKRSGSVYEPLKSINLPRPDNETLWDKLDHYYRIVKSTLLLYQSPTTGLFPTKTCGGDQKAKIQDSLYCAAGAWALALAYRRIDDDKGRTHELEHSAIKCMRGILYCYMRQADKVQQFKQDPRPTTCLHSVFNVHTGDELLSYEEYGHLQINAVSLYLLYLVEMISSGLQIIYNTDEVSFIQNLVFCVERVYRVPDFGVWERGSKYNNGSTELHSSSVGLAKAALEAINGFNLFGNQGCSWSVIFVDLDAHNRNRQTLCSLLPRESRSHNTDAALLPCISYPAFALDDEVLFSQTLDKVVRKLKGKYGFKRFLRDGYRTSLEDPNRCYYKPAEIKLFDGIECEFPIFFLYMMIDGVFRGNPKQVQEYQDLLTPVLHHTTEGYPVVPKYYYVPADFVEYEKNNPGSQKRFPSNCGRDGKLFLWGQALYIIAKLLADELISPKDIDPVQRYVPLKDQRNVSMRFSNQGPLENDLVVHVALIAESQRLQVFLNTYGIQTQTPQQVEPIQIWPQQELVKAYLQLGINEKLGLSGRPDRPIGCLGTSKIYRILGKTVVCYPIIFDLSDFYMSQDVFLLIDDIKNALQFIKQYWKMHGRPLFLVLIREDNIRGSRFNPILDMLAALKKGIIGGVKVHVDRLQTLISGAVVEQLDFLRISDTEELPEFKSFEELEPPKHSKVKRQSSTPSAPELGQQPDVNISEWKDKPTHEILQKLNDCSCLASQAILLGILLKREGPNFITKEGTVSDHIERVYRRAGSQKLWLAVRYGAAFTQKFSSSIAPHITTFLVHGKQVTLGAFGHEEEVISNPLSPRVIQNIIYYKCNTHDEREAVIQQELVIHIGWIISNNPELFSGMLKIRIGWIIHAMEYELQIRGGDKPALDLYQLSPSEVKQLLLDILQPQQNGRCWLNRRQIDGSLNRTPTGFYDRVWQILERTPNGIIVAGKHLPQQPTLSDMTMYEMNFSLLVEDTLGNIDQPQYRQIVVELLMVVSIVLERNPELEFQDKVDLDRLVKEAFNEFQKDQSRLKEIEKQDDMTSFYNTPPLGKRGTCSYLTKAVMNLLLEGEVKPNNDDPCLIS

The target of series [1] is human calmodulin, δ subunit of phosphorylase kinase (human, UniProt P0DP25 1-149). Description: cryo-EM structure.
The target of series [2] is B2. The series is described as follows: cross-linking.
Series [3] deals with B3. Description: cross-linking.
For series [4], the target named is T1, human muscle phosphorylase kinase α …. Description: cross-linking.
Series [5] concerns the molecule itself. Description: cryo-EM structure.

Take B1: the binding result in series [1] and in series [2] was “binds” throughout. Consider B2, for which the binding result in series [3] and in series [4] was “binds” throughout. Consider B3, for which the “stoichiometry N” value in series [5] was determined as 4.
